How the values were obtained:
[1] = Spectrophotometric assay with para-nitrophenyl ester substrate; type: biochemical
Experimental: (§1) First method was pH-stat.
(§2) To investigate the enzyme activity over pH, the activities were measured in different pH buffers. […] After staying at different pH for 180 minutes, the remaining activity was measured. As a result, the enzyme activity was maintained stably in the pH range of 5˜10 (FIG. 5). Phospholipase and lipase activity over temperature was also investigated. […] The enzyme activity was still observed at 5° C. (39% of maximum activity). When the temperature was raised more than the optimum activity temperature above, the activity was decreased rapidly (FIG. 6). In addition, melting temperature was also investigated by using differential scanning calorimetry (DSC). As a result, the melting temperature was 38.5° C. (FIG. 7).
Spectrophotometric assay was also performed at room temperature to investigate the activity of MPIaG to para-nitrophenyl ester with various carbon chain lengths, the synthetic substrate. At this experiment, para-nitrophenyl butyrate (C4), para-nitrophenyl caprylate (C8), para-nitrophenyl caprate (C10), para-nitrophenyl laurate (C12), para-nitrophenyl palmitate (C16), and para-nitrophenyl stearate (C18) were used as substrates for the comparison of the activity. 5 mM Ca^2+ was added to the reaction solution. The reaction product para-nitrophenol was continuously measured for 5 minutes at OD450 using DU800 spectrophotometer (Beckman). To exclude the non-enzymatic hydrolysis value of the substrates, the activity was measured without enzyme for every measurement under different conditions, which would be the control reaction.

[2] = Clear zone on solid medium supplemented with phosphatydilcholine emulsion (phospholipase activity); type: biochemical; conditions: 0.5% phosphatydilcholine, 0.5% taurocholic acid, 20 mM CaCl2
Experimental: (§3) The recombinant plasmid pFosPlaG derived from the metagenome library was isolated in the solid nutritive medium supplemented with tricaprylin emulsion which has been widely used for the isolation/confirmation of lipase gene. To investigate the phospholipase activity of the gene, the purified phospholipase/lipase MPIaG was loaded on the solid medium supplemented with phosphatydilcholine emulsion [0.5% (w/v) phosphatydilcholine, 0.5% (w/v) taurocholic acid, 20 mM CaCl2], followed by observing clear zone to confirm the activity.

[3] = LC-MS of phosphatidylcholine hydrolysis products (chain length and site specificity); type: biochemical
Experimental: Specificity of MPIaG over the location and chain length of phospholipid was investigated. To do so, phosphatydilcholine with different carbon chain lengths (C6, C7, C8, and C14) and 1-oleoly-2-palmitoyl-phosphatidylcholine (OPPC) were used. The purified MPIaG was added to 50 mM tris buffer (pH 8.0) containing 5 mM CaCl2 and 150 mM NaCl, followed by enzyme reaction along with 1 mM substrate for 12 hours at 25° C. The reaction product was analyzed by liquid chromatography mass spectrometry (LC-MS) using Finnigan LCQ. Advantage MAX ion trap mass spectrometer (Thermo Fisher Scientific) was equipped with electrospray ionization source. HPLC isolation was performed with HILIC guard column (4×2.0 mm, Phenomenex) and Kinetex HILIC column (2.6 μm, 2.1×100 mm, Phenomenex). The moving phase A was 10 mM ammonium formate whose pH was regulated as 3.0 with formic acid. The moving phase B was acetonitrile. Gradient elution was performed at the flow rate of 0.2 ml/min as follows: 0˜10 min., 10%˜40% A (linear gradient); 10˜20 min., 70% A (isocratic). Column temperature was room temperature, and the injection volume was 10 μL. Mass spectra were obtained from m/z in the negative ion mode 100˜1200 at the maximum ion injection time of 3 microscans and 200 ms.

[4] = Clear zone on solid medium supplemented with tricaprylin emulsion (lipase activity); type: biochemical; conditions: solid nutritive medium
Description: When tricaprylin is decomposed by lipase, clear zone is formed. So, the colonies forming such clear zone were selected.
as §3

[5] = pH-stat / pH titration of released fatty acid (hydrolysis of triacylglyceride, olive oil, phosphatidylcholine); type: biochemical; conditions: for specific enzyme activity: pH 8.0, pH titrator
Experimental: as §1
The activity of MPIaG to hydrolyze triacylglyceride, olive oil, and phosphatidylcholine was measured by titrating free fatty acid using pH titrator (842 Tirando, Metrohm). By adding 10 mM NaOH solution, pH of the substrate emulsion was regulated to 8.0. Then, a proper amount of enzyme solution was added thereto. Excretion rate of fatty acid was measured by using pH titrator for 5 minutes. […] To exclude the non-enzymatic hydrolysis value of the substrates, the activity was measured without enzyme addition for every measurement under different conditions, which would be the control reaction.
To further investigate specificity to substrate each having different carbon length, pH titration was performed with triacylglycerides such as tributyrin (C4), tricaprylin (C8), tricaprin (C10), trilaurin (C12), tripalmitin (C16), and triolein (C18:1).

[6] = Expression in E. coli BL21(DE3), Ni-NTA purification and SDS-PAGE
Experimental: The E. coli BL21(DE3)/pET22b(+)-MPIaG constructed in Example 4 was cultured in a liquid nutritive medium [1% (w/v) trypton, 0.5% (w/v) yeast extract, 0.5% (w/v) NaCl] containing ampicillin (100 μg/ml) until OD600 reached 0.6. IPTG (isopropyl-β-D-thiogalactopyranoside) was added to the culture solution (final conc.: 0.5 mM), followed by further culture for 12 hours. E. coli BL21(DE3)/pET22b(+)-MPIaG was obtained by centrifugation, which was suspended in binding buffer (50 mM Tris-HCl, pH 8, 500 mM NaCl, 10 mM imidazole). The cell suspension was lysed by ultrasonication. The cell lysate was centrifuged to obtain supernatant. The supernatant was loaded on Ni-NTA (nitriloteiacetic acid) column to elute phospholipase and lipase by imidazole gradient, followed by dialysis-concentration. To confirm the purified phospholipase/lipase MPIaG, SDS-PAGE (sodium dodecyl sulfate-polyacrylamide gel electrophoresis) was performed, followed by staining with Coomassie brilliant blue.

[7] = Melting temperature by differential scanning calorimetry (DSC); type: physicochemical
Experimental: as §2
So, it was expected that the structural stability was increased by calcium ion (FIG. 7).

[8] = Substrate specificity to various phospholipids, clear zone on solid media with phospholipid emulsions; type: biochemical
Experimental: To investigate substrate specificity to various phospholipids, the purified phospholipase/lipase MPIaG was added to the solid media respectively supplemented with various phospholipid emulsions. Then, the activity over phospholipid was investigated by comparing the size of clear zone. The phospholipid emulsion was composed of 0.5% (v/v) phospholipid substrate, 0.5% (w/v) taurocholic acid, and 20 mM CaCl2. The substrates used herein were phosphatydilcholine (PC, 99% purity), phosphatidylethanolamine (PE, 97% purity), phosphatidylserine (PS, 97% purity), phosphatidylinositol (PI, 98% purity), phosphatidylglycerol (PG, 99% purity), and phosphatidic acid (PA, 98% purity).

B1: MPIaG: catalytic domain of PlaG, SEQ. ID. NO: 5, protein having both phospholipase and lipase activities, from tidal flat metagenome (protein)
chain: LNQSDYEKAIDYGKLSAQAYDWDDYAAAHVGMGFFANIDDIKATDFATPNYVEVQSVGGYIDWWGTDGLDFKVFQNTETDDLVVAYKGTEPLSPVDWVADAEQIFGNSEQYQKAVDFARDLSAQVEQYNVQNGLTGDAAMQLSFTGHSLGGGLATASALATGREAMAFDAAGLSQGTINNLGLDIRHASKITNFNVKGDWLSDHNKQMDDTTLGSELAGIVPETKQYGNTYWLEGINDIADFGGWLVPDNNMAVDFAKSILNHAWHVYVYMLENDKFL
modifications: phospholipase/lipase MPlaG AA
temperature of maximum activity [1]: 25 °C | temperature up to which the enzyme is active [1]: up to 40 °C | enzyme activity, % of maximum activity ([1]; at 5° C.): 39% | pH of maximum activity ([1]; different pH buffers): 8 | substrate chain-length preference ([1]; para-nitrophenyl esters C4-C18, 5 mM Ca^2+): para-nitrophenyl ester having long acyl straight chain | pH range in which enzyme activity was maintained stably ([1]; remaining activity after 180 minutes at different pH): 5˜10 | highest activity, to para-nitrophenyl palmitate (C16) ([1]; room temperature, 5 mM Ca^2+, reference of the fold not stated): approximately 112 times | specific activity compared to the full-length phospholipase/lipase PlaG ([1]; synthetic substrate): at least two times increased specific activity | clear zone formation on phosphatydilcholine emulsion medium [2]: clear zone was clearly formed | clear zone formation on phosphatydilcholine emulsion medium ([2]; listed as the gene of the present invention): formed clear zone on both solid media | hydrolase activity of phosphatydilcholine to lysophosphatidylcholine, best substrate ([3]; 1 mM substrate, 12 hours, 25° C., 5 mM CaCl2): highest to 1,2-Dioctanoyl-phosphatidylcholine (diC8PC) | hydrolysis site on OPPC (site specificity) ([3]; OPPC, 25° C., 12 hours, LC-MS): phospholipase A1 | product 2-hexanoyl-lysophosphatidylcholine ([3]; diC6PC, LC-MS after reaction): 10.4% | remaining substrate 1,2-dihexanoyl-phosphatidylcholine ([3]; diC6PC, LC-MS after reaction): 89.6% | product 2-heptanoyl-lysophosphatidylcholine ([3]; diC7PC, LC-MS after reaction): 49.5% | remaining substrate 1,2-diheptanoyl-phosphatidylcholine ([3]; diC7PC, LC-MS after reaction): 50.5% | product 2-octanoyl-lysophosphatidylcholine ([3]; diC8PC, LC-MS after reaction): 50.4% | remaining substrate 1,2-dioctanoyl-phosphatidylcholine ([3]; diC8PC, LC-MS after reaction): 49.6% | product 2-myristoyl-lysophosphatidylcholine ([3]; diC14PC, LC-MS after reaction): 3.5% | remaining substrate 1,2-dimyristoyl phosphatidylcholine ([3]; diC14PC, LC-MS after reaction): 96.5% | substrate chain-length preference ([3]; phosphatidylcholines C6, C7, C8, C14): phospholipid having medium length acyl straight chain | clear zone formation on tricaprylin emulsion medium [4]: formed clear zone on both solid media | interfacial activity ([5]; as the concentration of tributyrin increased): showed interfacial activity | specific activity by pH-stat ([5]; substrate Olive oil): 114.8 ± 11.3 | specific activity by pH-stat ([5]; substrate Tributyrin (C4)): 140 ± 6.4 | specific activity by pH-stat ([5]; substrate phosphatydilcholine): 13.4 ± 1.5 | specific enzyme activity ([5]; toward olive oil): 2957±144 Umg^−1 | specific enzyme activity ([5]; toward phosphatidylcholine): 1735±147 Umg^−1 | substrate chain-length preference ([5]; triglycerides C4-C18:1, pH titration): triglyceride having short acyl straight chain | hydrolysis of triolein (C18:1) ([5]; triolein, not degraded by esterase): decomposed triolein | solubility of the expressed protein [6]: expressed in a water-soluble form | melting temperature ([7]; 0 mM calcium): 38.5 °C | melting temperature ([7]; 2 mM calcium ion): 47.2 °C | melting temperature ([7]; 5 mM calcium ion): 49.2 °C | activity to phospholipid substrate (clear zone) ([8]; substrate phosphatidic acid (PA)): did not decompose | activity to phospholipid substrate (clear zone) ([8]; substrate phosphatidylethanolamine (PE)): excellent activity | activity to phospholipid substrate (clear zone) ([8]; substrate phosphatidylglycerol (PG)): excellent activity | activity to phospholipid substrate (clear zone) ([8]; substrate phosphatidylserine (PS)): did not decompose | activity to phospholipid substrate (clear zone) ([8]; substrate phosphatydilcholine (PC)): excellent activity

Source: patent US9441018B2, “Gene from tidal flat metagenome and a novel protein displaying both phospholipase and lipase activities” (KOREA RESEARCH INSTITUTE OF BIOSCIENCE AND BIOTECHNOLOGY, priority 2011, dated 2016)
